Test results as given in article PMC9489553, “Biochemical and clinical studies of putative allergens to assess what distinguishes them from other non-allergenic proteins in the same family” (Transgenic Research, 2022).

How the values were obtained:
[1] = molecular target: the molecule itself; experiment: crystal structure; ChALDH apoenzyme, hanging drop at 4 °C, 20% PEG-100, 100 mM sodium/potassium phosphate pH 6.2, 200 mM NaCl; 3.18 Å
[2] = molecular target: the molecule itself; experiment: crystal structure; ChMDH with 5 mM NADP+, hanging drop at 4 °C, 25% PEG-1500, sodium propionate/sodium cacodylate/BIS-TRIS propane pH 7.0; 2.04 Å

Protein	stoichiometry N [1]	stoichiometry N [2]
Cladosporium herbarum (aka Davidiella tassiana) aldehyde dehydrogenase (enzyme, aldehyde dehydrogenase of Cladosporium herbarum (aka Davidiella tassiana), GenBank CAA55072.2; codon-optimised synthetic gene in pET-28a; Apoenzyme in the crystal; also called ChALDH; C. herbarum ALDH; source: E. coli BL21 (DE3), purified (Ni-NTA, size-exclusion chromatography); not shown: His-tag, N-terminal, cleaved) MTSVQLETPHSGKYEQPTGLFINNEFVKGQEGKTFDVINPSDESVITQVHEATEKDVDIAVAAARKAFEGSWRQETPENRGKLLNNLANLFEKNIDLLAAVESLDNGKAISMAKGDISMCVGCLRYYGGWADKITGKVIDTTPDTFNYVKKEPIGVCGQIIPWNFPLLMWAWKIGPAIACGNTVVLKTAEQTPLGGLVAASLVKEAGFPPGVINVISGFGKVAGAALSSHMDVDKVAFTGSTVVGRTILKAAASSNLKKVTLELGGKSPNIVFEDADIDNAISWVNFGIFFNHGQCCCAGSRVYVQESIYDKFVQKFKERAQKNVVGDPFAADTFQGPQVSKVQFDRIMEYIQAGKDAGATVETGGKRKGDKGYFIEPTIFSNVTEDMKIVKEEIFGPVCSIAKFKTKEDAIKLGNASTYGLAAAVHTKNLNTAIEVSNALKAGTVWVNTYNTLHHQMPFGGYKESGIGRELGEDALANYTQTKTVSIRLGDALFG	4	–
Cladosporium herbarum mannitol dehydrogenase (enzyme, codon-optimised synthetic gene in pET-28a; Crystallised in complex with NADP+; also called ChMDH; C. herbarum MDH; source: E. coli BL21 (DE3), purified (Ni-NTA, size-exclusion chromatography); not shown: His-tag, N-terminal, cleaved) MPGQQATKHESLLDQLSLKGKVVVVTGASGPKGMGIEAARGCAEMGAAVAITYASRAQGAEENVKELEKTYGIKAKAYKCQVDSYESCEKLVKDVVADFGQIDAFIANAGATADSGILDGSVEAWNHVVQVDLNGTFHCAKAVGHHFKERGTGSLVITASMSGHIANFPQEQTSYNVAKAGCIHMARSLANEWRDFARVNSISPGYIDTGLSDFVPKETQQLWHSMIPMGRDGLAKELKGAYVYFASDASTYTTGADLLIDGGYTTR	–	4
